Data on one molecule can be found in PMC6735613.

This assay has as its target recombinant human MMP-9 catalytic domain (residues 112-445) (human) (UniProt P14780).
UniProt P14780, sequence (P14780 112-445): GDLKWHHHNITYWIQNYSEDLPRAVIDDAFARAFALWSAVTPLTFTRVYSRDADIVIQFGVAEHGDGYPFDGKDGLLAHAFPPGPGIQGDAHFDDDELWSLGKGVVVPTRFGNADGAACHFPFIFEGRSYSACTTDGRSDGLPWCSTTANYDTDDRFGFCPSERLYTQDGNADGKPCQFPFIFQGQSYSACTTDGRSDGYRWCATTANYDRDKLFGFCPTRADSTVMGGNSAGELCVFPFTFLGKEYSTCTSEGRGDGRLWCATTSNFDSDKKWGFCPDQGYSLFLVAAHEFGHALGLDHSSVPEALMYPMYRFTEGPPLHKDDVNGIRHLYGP

B1: VCAN p.1335-1347 FRET substrate (5-FAM-…-QXL) (peptide)
peptide: GRMSDLSMIGHPI
modifications: 5-FAM on the N-terminus, QXL quencher on the C-terminus (5-FAM-GRMSDLSMIGHPI-QXL)
Consider B1, for which the Kcat/Km of hydrolysis of the FRET-tagged peptide by the MMP-9 catalytic domain is 8650 M⁻¹ s⁻¹.
